32 variants from the RNAGym collection of RNA variant scans (doi:10.7554/elife.80360) can be followed below.

To fix the notation:
B1: HDV Ribozyme (parent)
chain: GGCCGGCAUGGUCCCAGCCUCCUCGCUGGCGCCGGCUGGGCAACAUUCCGAGGGGACCGUCCCCUCGGUAAUGGCGAAUGGGACCCA

The variants in this data set derive from B1. Put plainly: self-cleavage, relative activity (ratio to wild type); higher = more cleavage; co-transcriptional.
As for GGCCGGCAUGGUCCCAGCCUCCUCGCUGGCGCCGGCUGGGCAACAUACCGAGGGGACCGUCCCCUCGGAAAUGGCGAAUGGGACCCA [U47A U69A], the self-cleavage came to 1.02. As for GGCCGGCAUGGUCCCAGCCUCCUCGCUGGCGCCGGCUGGGCAACAUACCGAGGGGACCGUCCCCUCGGGAAUGGCGAAUGGGACCCA [U47A U69G], the figure is 1.13. The figure for GGCCGGCAUGGUCCCAGCCUCCUCGCUGGCGCCGGCUGGGCAACAUACCGAGGGGACCGUCCACUCGGUAAUGGCGAAUGGGACCCA [U47A C63A] is 0.96. For the variant GGCCGGCAUGGUCCCAGCCUCCUCGCUGGCGCCGGCUGGGCAACAUACCGAGGGGACCGUCCGCUCGGUAAUGGCGAAUGGGACCCA [U47A C63G], the self-cleavage was determined as 0.653. In the case of GGCCGGCAUGGUCCCAGCCUCCUCGCUGGCGCCGGCUGGGCAACAUACCGAGGGGACCGUCCCCUCGGUAAUGGCGAAUGAGACCCA [U47A G81A], the self-cleavage came to 0.341. Consider GGCCGGCAUGGUCCCAGCCUCCUCGCUGGCGCCGGCUGGGCAACAUACCGAGGGGACCGUCGCCUCGGUAAUGGCGAAUGGGACCCA [U47A C62G], for which the self-cleavage turned out to be 0.54. Take GGCCGGCAUGGUCCCAGCCUCCUCGCUGGCGCCGGCUGGGCAACAUACCGAGGGGACCGUCCCCUCGGUAAUGGCGAAUAGGACCCA [U47A G80A]: the self-cleavage worked out at 0.277. GGCCGGCAUGGUCCCAGCCUCCUCGCUGGCGCCGGCUGGGCAACAUACCCAGGGGACCGUCCCCUCGGUAAUGGCGAAUGGGACCCA [U47A G50C]: the self-cleavage was 0.855. Turning to GGCCGGCAUGGUCCCAGCCUCCUCGCUGGCGCCGGCUGGGCAACAUACCUAGGGGACCGUCCCCUCGGUAAUGGCGAAUGGGACCCA [U47A G50U], the self-cleavage came out at 1.18.

Turning to GGCCGGCAUGGUCCCAGCCUCCUCGCUGGCGCCGGCUGGGCAACAUACCGAGGGGACCGUCCCCUCGGUAAUGGCGAAUGGGACGCA [U47A C85G], the self-cleavage turned out to be 0.665. In the case of GGCCGGCAUGGUCCCAGCCUCCUCGCUGGCGCCGGCUGGGCAACAUACCGAGGAGACCGUCCCCUCGGUAAUGGCGAAUGGGACCCA [U47A G54A], the self-cleavage came out at 0.95. With GGCCGGCAUGGUCCCAGCCUCCUCGCUGGCGCCGGCUGGGCAACAUCCCGAGGGGACCGUCCCCUCGGUCAUGGCGAAUGGGACCCA [U47C A70C], the self-cleavage came out at 0.739. Consider GGCCGGCAUGGUCCCAGCCUCCUCGCUGGCGCCGGCUGGGCAACAUACCGAGGGGACCGCCCCCUCGGUAAUGGCGAAUGGGACCCA [U47A U60C], for which the self-cleavage was 0.88.

With GGCCGGCAUGGUCCCAGCCUCCUCGCUGGCGCCGGCUGGGCAACAUACCGAGGGGACCGUCCCCUCGGUAAUGGGGAAUGGGACCCA [U47A C75G], the self-cleavage is 0.172. Consider GGCCGGCAUGGUCCCAGCCUCCUCGCUGGCGCCGGCUGGGCAACAUACCGAGGGGACCGUCCCCUCGGUAAGGGCGAAUGGGACCCA [U47A U72G], for which the self-cleavage turned out to be 0.665. For GGCCGGCAUGGUCCCAGCCUCCUCGCUGGCGCCGGCUGGGCAACAUACCGAGGGGACCGUCCCCUCGGUAAAGGCGAAUGGGACCCA [U47A U72A], the self-cleavage was 0.748. Turning to GGCCGGCAUGGUCCCAGCCUCCUCGCUGGCGCCGGCUGGGCAACAUACCGAGGGGACCGUCCCCCCGGUAAUGGCGAAUGGGACCCA [U47A U65C], the self-cleavage was found to be 0.8.

Regarding GGCCGGCAUGGUCCCAGCCUCCUCGCUGGCGCCGGCUGGGCAACAUCCCGGGGGGACCGUCCCCUCGGUAAUGGCGAAUGGGACCCA [U47C A51G], the self-cleavage is 0.969. Take GGCCGGCAUGGUCCCAGCCUCCUCGCUGGCGCCGGCUGGGCAACAUACCGAGGGGACCGUCCCCUCGGUAAUGGCGAAUGGGAGCCA [U47A C84G]: the self-cleavage came to 0.831.

With GGCCGGCAUGGUCCCAGCCUCCUCGCUGGCGCCGGCUGGGCAACAUACCGAGGGGACCGUCCCCUCGGUAAUGGCGAAUGGGAUCCA [U47A C84U], the self-cleavage worked out at 0.735. Regarding GGCCGGCAUGGUCCCAGCCUCCUCGCUGGCGCCGGCUGGGCAACAUCCCGAGGGGACCGUCCCCUCGGUAGUGGCGAAUGGGACCCA [U47C A71G], the self-cleavage was 1.13. GGCCGGCAUGGUCCCAGCCUCCUCGCUGGCGCCGGCUGGGCAACAUACCGAGGGGACCGUCCCCUCGCUAAUGGCGAAUGGGACCCA [U47A G68C]: the self-cleavage worked out at 0.982. GGCCGGCAUGGUCCCAGCCUCCUCGCUGGCGCCGGCUGGGCAACAUACCGAGGGGACCGUUCCCUCGGUAAUGGCGAAUGGGACCCA [U47A C61U]: the self-cleavage is 0.814. Consider GGCCGGCAUGGUCCCAGCCUCCUCGCUGGCGCCGGCUGGGCAACAUACCGAGGGGACCGUCCCCUCGGUAAUGGCGAAUGGGACCGA [U47A C86G], for which the self-cleavage was 0.733. Take GGCCGGCAUGGUCCCAGCCUCCUCGCUGGCGCCGGCUGGGCAACAUACCGAGGGGACCGUCCCCUCGGUAAUGGCGAAUGGGACCUA [U47A C86U]: the self-cleavage was determined as 0.88.

Consider GGCCGGCAUGGUCCCAGCCUCCUCGCUGGCGCCGGCUGGGCAACAUACCGAGGGGACCGUCCCCUCGGUAAUGGCGAAUGGGACCAA [U47A C86A], for which the self-cleavage was found to be 1.04. As to GGCCGGCAUGGUCCCAGCCUCCUCGCUGGCGCCGGCUGGGCAACAUACCGAGAGGACCGUCCCCUCGGUAAUGGCGAAUGGGACCCA [U47A G53A], the self-cleavage amounted to 1.22. In the case of GGCCGGCAUGGUCCCAGCCUCCUCGCUGGCGCCGGCUGGGCAACAUACCGAGGGGACCGUCCCCUCGGUAAUGGCGAAUGGUACCCA [U47A G82U], the self-cleavage came to 0.142.

As to GGCCGGCAUGGUCCCAGCCUCCUCGCUGGCGCCGGCUGGGCAACAUACCGAGGGGACCGUCCCCUCGGUAAUGGCGAAUGGAACCCA [U47A G82A], the self-cleavage was found to be 0.298. GGCCGGCAUGGUCCCAGCCUCCUCGCUGGCGCCGGCUGGGCAACAUACCGAGGGGACCGUCCCCUCGGUAAUGGCGAAAGGGACCCA [U47A U79A]: the self-cleavage is 0.598.

In the case of GGCCGGCAUGGUCCCAGCCUCCUCGCUGGCGCCGGCUGGGCAACAUACCGAGGGGACCGUCCCCUCGGUAAUGGCGAACGGGACCCA [U47A U79C], the self-cleavage stood at 0.312. GGCCGGCAUGGUCCCAGCCUCCUCGCUGGCGCCGGCUGGGCAACAUACCGAGGGGACCCUCCCCUCGGUAAUGGCGAAUGGGACCCA [U47A G59C]: the self-cleavage turned out to be 1.11.
